Data taken from patent publication US7179650 (University of Texas, dated 2007).

B1: E2-EPF (yeast two-hybrid) (enzyme, human, UniProt Q16763 1-222, looked up)
chain: MNSNVENLPPHIIRLVYKEVTTLTADPPDGIKVFPNEEDLTDLQVTIEGPEGTPYAGGLFRMKLLLGKDFPASPPKGYFLTKIFHPNVGANGEICVNVLKRDWTAELGIRHVLLTIKCLLIHPNPESALNEEAGRLLLENYEEYAARARLLTEIHGGAGGPSGRAEAGRALASGTEASSTDPGAPGGPGGAEGPMAKKHAGERDKKLAAKKKTDKKRALRRL
notes: not shown: GAL4 fusion domain of the two-hybrid vector
B2: The N-terminal 23 amino acids of sentrin-1 (yeast two-hybrid) (peptide)
chain: MSDQEAKPSTEDLGDKKQGEYIK
notes: Range worked out from the words: the N-terminal 23 amino acids; also called sentrin-1 (1-23); not shown: GAL4 fusion domain of the two-hybrid vector
B3: sentrin-1 (24-101) (yeast two-hybrid) (other)
chain: LKVIGQDSSEIHFKVKMTTHLKKLKESYCQRQGVPMNSLRFLFEGQRIADNHTPKELGMEEEDVIEVYQEQTGGHSTV
notes: also called deletion of the N terminal 23 amino acids; not shown: GAL4 fusion domain of the two-hybrid vector
B4: UbCH6 (yeast two-hybrid) (enzyme, human, UniProt P51965 1-193, looked up)
chain: MSDDDSRASTSSSSSSSSNQQTEKETNTPKKKESKVSMSKNSKLLSTSAKRIQKELADITLDPPPNCSAGPKGDNIYEWRSTILGPPGSVYEGGVFFLDITFTPEYPFKPPKVTFRTRIYHCNINSQGVICLDILKDNWSPALTISKVLLSICSLLTDCNPADPLVGSIATQYMTNRAEHDRMARQWTKRYAT
notes: as for B1
B5: Sentrin-1 with substitution of Ala-Ala for Gly-Gly (yeast two-hybrid) (other)
chain: MSDQEAKPSTEDLGDKKQGEYIKLKVIGQDSSEIHFKVKMTTHLKKLKESYCQRQGVPMNSLRFLFEGQRIADNHTPKELGMEEEDVIEVYQEQTAAHSTV
notes: as for B1
B6: sentrin-1 (1-70) (yeast two-hybrid) (other)
chain: MSDQEAKPSTEDLGDKKQGEYIKLKVIGQDSSEIHFKVKMTTHLKKLKESYCQRQGVPMNSLRFLFEGQR
notes: also called deletion of the C-terminal 31 amino acids; not shown: GAL4 fusion domain of the two-hybrid vector

What was measured:
[1] = molecular target: T1, Gal-4-sentrin-1 (pGBT9-sentrin-1, full-length sentrin-1 fused to the GAL4 DNA-binding domain) (human, UniProt P04386 1-147 (Saccharomyces cerevisiae entry)); assay: yeast two-hybrid
T1 construct: also called wild type sentrin-1; sentrin-1 bait

[2] = molecular target: T2, Full-length human Ubc9 in pGAD424 (GAL4 activation domain fusion) (human, UniProt P04386 768-881; P63279 1-158); assay: yeast two-hybrid
T2 construct: also called human ubiquitin conjugating enzyme

| Binder | binding result [1] | binding result [2] |
| --- | --- | --- |
| B1 | no binding | – |
| B2 | – | no binding |
| B3 | – | binds |
| B4 | no binding | – |
| B5 | – | no binding |
| B6 | – | no binding |
